The DeepSol protein solubility set

Assay: soluble on expression in E. coli; label from the status in PepcDB or PDB records
With “MNLMLCCTPLQVLIARKIIELHPNEQFFGVMFGGVWDKKRTLYASKLAEVCSDSMNIDTGKDLKGFDFLKLMRQLKNKITHKGFDKVFLANLNSLWLQTYLSHVSFKELYTFDDGSDNIFPHPNLLREPGTFKYKLIKAFIGDKYSVNKLFKKIKKHYTVYPNYKNIVSNIEPISLWDNQIDCEIDGEVSFFIGQPLLNTKEENISLIKKLKDQIPFDYYFPHPAEDYRVDGVNYVESELIFEDYVFKHLSNKKLFIRSSVLLHLIYVILMKSVLLERVFQDGNSVTIHFQTLDRFIRKFLEHHHHHH” the “soluble on expression in E. coli” value was “not soluble”.
In the case of “SLPTIIGLAAVARSGKDTVASMLMEHPEVATYALADPLKAGCQAIFGLSDAEAWSDEAKEKTIDLWGLSPRQLFQRAGTEWLRDHNADHWLLRADRQLNHKPVEPRPVSATELASPSASIWLGVQAFWGLTEAQTWQDDLRAAEDPFWNITPKEMFAIVDRYLSRDFPSYVSTRSKRAISTPTRPLTNAAGKSIFIIKDIRYENEAAFWRSHNGVIWHITRNNAIKVQSHSSEDGIEFRNGDISIENNDTIEELRKKVESAWSCVRVD”, the “soluble on expression in E. coli” value is reported as “soluble”.
In the case of “MGSDKIHHHHHHMTSPSPDQVIRQEILALSAYHVPPAKDMVKLDAMENPYRLPPFLCEEISRIAADTSINRYPDPHAAALKEVLSTTLSVPAGMEIMLGNGSDEIIQIIMLAAAKPEAKLLTIEPGFAMFKMIATFANMQYIGIPLKPDFSLDIDRMLAAIERHQPSVIFLAYPNNPSGNLFDTSALEKIIEISPGLVVIDEAYHPFAGKSFIGRLADYPNLLVMRTLSKLGLAGLRLGLLAGRPEWLSHLEKLRLPYNVNVITQLVATKIMQHYDVLQQQADAIRQTRTRLRTFLENLNGIEVFPSNANFILFRLDGASQIFRLLQQHGILVKNLDNSHPLLKNCLRVTVGTPEENDRFCNTLQDLIAGN”, the “soluble on expression in E. coli” value is reported as “not soluble”.
With “GREPADMVLKGGRFFDLVTGELVASDIAICGDTVVGTCGDYKGRHEIDISGKIVVPGFIDTHLHIESSLVTPHEFDRCVLPYGVTTAICDPHEIANVLGAEGLQFFLDSAMETIMDIRVQLSSCVPATHLETSGADLPIEKLLPFRNHPKVIGLAEFMNFPGVIHKDPVCMAKLEAFQGQHIDGHAPLLSGAALNGYLAAGIRTEHECTSAAEALEKIRKGMHILVREGSVSKDLHALMPIITERLSPYLALCTDDRNPLDIAEQGHLDYMIRTAIASGVEPLAIYRAASISAAKAFGLRDRGLVAPGWRADLVVIDTLQNCKASMVLSGGRLVDDALFATRKPVAPVGLDSVKARPVLASHFGVPVTEGETPVMGVLPGKIITEHRRYKLPTDGNQTTVDLENDIIKVAVIERHGKNGNHANGFVQGFGLKKGAIASTVGHDSHNICVVGVSEDDMALAANRLGDIKGGFVVVEDGRVTGEIALPVAGLMSLEPYETVRDTLHTLRKAAYALGTTLEEPFLQVAFLPLPVIPHLKISDMGMVDVDRFA” the “soluble on expression in E. coli” value was “not soluble”.
In the case of “MGSDKIHHHHHHMINSTFLTNRVFSTWYYFSLLLYKEKGCDLVKTPKIVVLGAGYGGMITTVRLQKALSVNEAEITLVNNNSYHYQATWLHESAAGTLQDEKICLDIQDVIDTNKVNFVQDTVVEIKAAEKRIILKDGELEYDYLVIGLGFESETFGITGLKEHAFSIANINATRQIREHMEASFAKYADEKRDELVTIVVGGAGFTGIEYVGELANRVPELCKQYNVPREKARIICVEAAPTALPGFDPALVEYAVKQLEKKGVEFRIGTAIKEATEEGIIVANGDDTELIKSETVVWAAGVRGNGIVEESGFEAMRGRVKVDEYMHAPGYEDVFMVGDAALIINEEINRPYPPTAQIAIQQGYNIAHNLTVLVRGKGEMKKFVFDNKGSVCSLGHDDAMGVVMGKKLTGWKASFMKKVIDNRYLFLLGGPLLVLKKGKLKFF”, the “soluble on expression in E. coli” value is reported as “not soluble”.
In the case of “MAGDPMKNILIFPFLSISTGHHHVADALQAELESQGLAAEKIDIFSHSYRRLEKLSSVAYLKWIQYFPKTYSGIYRLLACGEFQHDKRYFMYECVFTQQMRHILQEKQPDIAFCTHALPSYLLNRLKPEYPNLTVVNVYTDFFVNQLWGRKNIDYHFVPSTEVKKQLISEGIDQNNIYLTGIPVHQNFEMESADTLQHHPPYTIIITGGSMGVGGILKWVQELSPGGKILYKILCGRNEKLYSYVKSLHHPLIEAIPYLHSKAEMNRLYEQATGIMTKPGGVTISECLQKRLPVFIYHALPGQEEMNLNLLHERKLVTDMRNWDMQKAEEYIAAFFQSNEQMKEYKKHVNGYLGEMSDRKIKDVLKRIIWKQKNTLLKLEHHHHHH”, the “soluble on expression in E. coli” value is reported as “not soluble”.
For “DEPKVLIAEVVVEGATPELEQLVYQVISTRPGSTTTRTQLQQDTNAIFATGFFADVNAVPRDTPLGVRITFVVRPYPVLRAVQVAGNQVLTQEKVNEIFAPQIGRTLNLRELQAGIEKINTFYRDNGYILGQVVGTPQVDPDGVVTLQVAEGVVEQVTYRFLNKEGEPTKQRTRDFVISREMDTQPGVVLNQKTVQADLRRLFELGLFEDVQVALEPGQNPRRVNLILNIKERNT”, the “soluble on expression in E. coli” value was “soluble”.
With “MELQEVLHMNGGEGDTSYAKNSSYNLFLIRVKPVLEQCIQELLRANLPNINKCFKVGDLGCASGPNTFSTVRDIVQSIDKVGQEKKNELERPTIQIFLNDLFQNDFNSVFKLLPSFYRNLEKENGRKIGSCLIGAMPGSFYSRLFPEESMHFLHSCYCLHWLSQVPSGLVTELGISVNKGCIYSSKASRPPIQKAYLDQFTKDFTTFLRIHSEELISRGRMLLTFICKEDEFDHPNSMDLLEMSINDLVIEGHLEEEKLDSFNVPIYAPSTEEVKRIVEEEGSFEILYLETFNAPYDAGFSIDDDYQGRSHSPVSCDEHARAAHVASVVRSIYEPILASHFGEAILPDLSHRIAKNAAKVLRSGKGFYDSVIISLAKKPEKADM” the “soluble on expression in E. coli” value was “soluble”.
In the case of “MSLRARYKQLVDTFAADIRTGILAPGTRLPTHRELAAREGLALVTASRVYAELEAMGLVSGETGRGTYVRETALPPGQGVDQPATAPGTLDLNFNYPALPGQAELLRSALRQLAATGDLEALLRYQPHAGRSHERATVARYLAGHGLVVEGEQVLLVSGAQHGLSTTLMALLRPGDVVAVDALTYPGFKVVAEAHGLELLAIPLSEQGPDLEAFERLCQRRRVRAVYAMPTLHNPMGWVLDLAWRQRLVAIGRAHGLLIIEDAAYAFLAQDPPAPLAALAPEITVYISGFSKNVATGLRVGYVVAPPAWVALIERAIRTSTWNTPGVMTAMACAWIEDGTVARLEHQKREDAQARQALAREALAGLAYVSHPNSYFLWLPLPEEVRADQVAMALLREKVSVSTAEPFVGAGPVPHAIRLALGSVAMADLGVALARVRQVIGRYAFEGHHHHHH”, the “soluble on expression in E. coli” value is reported as “soluble”.
In the case of “MNSGNMQDTLDLEKKLRGYLFGTACADALGRPVEHLTLKQIKEKYGEKGILELPPNSSWTDDTQLMLVLARGLLHGAEFELPELMKHIAGELVLWLKEPDLGAGATTKGAALSLKDGIHWSESGLNSKTCGSLMRVGILGFIFSNDPDKLIEAASLSGRITHNHPTADAASVAGAYAVKLALDGIAPEDMFLPLLRVTEGISDEFTEALKHSYELAHSNLSDEEALQKLGQGWYADETFALAYFCILRYPDNYKKAVQTGVNITGDSDSVGSVAGGILGARLGIEAVPVSWVESLKEKEIIEEMVEPLIEKYLEVSENKHQVSEDGFGAMAGDPLEHHHHHH”, the “soluble on expression in E. coli” value is reported as “soluble”.
In the case of “MKLKELVKQFIPMNYWNTRRKASIIRQQGKVADFWAPILKAYYNGEIERYSLKPKKKLGTQKVIWQYWGQGIDKDELPEIIQICFDSVDRNKNDYQVIRLTDITISEYIDLPDFVWRKREYVQFTRTFFSDLLRVALLSTYGGVWLDATILLTGSIPAVYEKTDFFMYQRSDEEKNKKYWENVYAYYFGWEPNFKVRMLSSILFAQKESEIISTLTDLLLYFWKTQDSLPDYFCFQILFNELVANYRPAENCPIVNDCIPHIIQTKINGTYDDVSFEEALELSNIHKMTYFDAAAMIRLKMVLRLARNALEHHHHHH”, the “soluble on expression in E. coli” value is reported as “soluble”.
In the case of “PQEKVSRIHASSGTTGRPTVVGYTTGDLNNWADLVARSLRAGGVKPTDKVHVAYGYGLFTGGLGAHYGAERLGCTVIPMSGGMTDRQIQLIEDFEPDAIMVTPSYMLTIVDAMIKKGIDPSKTSLRTGVFGAEPWTEEMRTELEKQLNMDAVDIYGLSEVMGPGVAMECVDTKDGLHI”, the “soluble on expression in E. coli” value is reported as “not soluble”.
With “SATLKVSDSVPAPSDDAEQLRTAFEGWGTNEDLIISILAHRSAEQRKVIRQAYHETYGEDLLKTLDKELSNDFERAILLWTLEPGERDALLANEATKRWTSSNQVLMEVACTRTSTQLLHARQAYHARYKKSLEEDVAHHTTGDFRKLLVSLVTSYRYEGDEVNMTLAKQEAKLVHEKIKDKHYNDEDVIRILSTRSKAQINATFNRYQDDHGEEILKSLEEGDDDDKFLALLRSTIQCLTRPELYFVDVLRSAINKTGTDEGALTRIVTTRAEIDLKVIGEEYQRRNSIPLEKAITKDTRGDYEKMLVALLGEDDA” the “soluble on expression in E. coli” value was “soluble”.
For “MFNCLTKLVILVCLKYVAKALLNRSTGLIMKDKPEGVHHIKSCSDSSSRIWYSLWMNIAFCGGLGPTSIFDPCFLTSSAPSPPSAPALAIPAAAPPLPTSVPAGAGVEAGAGAETVSSSLMIFSSFFLYN”, the “soluble on expression in E. coli” value was “soluble”.
For “MGSDKIHHHHHHMPMTNLAALSIPDLQQYAQGAVAAPFGLVLDDGSVLQSLEVVRRVPGKRLVCRGLLNGQAIYAKLFIGGQAGKYAARDKRGARWLAQARLATPTLLLESGVASQGCEALLYGAIPARNAEQVWQDLDEEGRHALALRLVEEVARHHRAGLLQTDLYLKNFLVDAQAVYTLDGDGIRQLRVFGRQRQQWDNLARLISKFDVDAVAAWLPSLLRQYVAVIGGGASDIDIMQQLIARHWRRDMRQYASKVQRSCTDVAVEEKPWHYLAINRAQDSPGVRQALATPDGLLDATSAVRLKSGNTCTVAAVEIDQRKMVIKRYNIKNFWHGLGRAWRPSRAVVSWSNAFRLQLKGIATPAAVAVLERRWLGLRREAYLLTEFMIARDAAEFYADLTIDREVKERVAQRIARLFFQLFCLQLEHGDFKATNILIRDQYPLLIDLDSMRQHACKKRFERRHARDLQRFFKNWQGDAATSQLLAAAFRAVYADGRVLDQAGIVFNQSEKDE”, the “soluble on expression in E. coli” value was “not soluble”.
In the case of “MSLSKDEELLQNYCSILFTYKTIGISNLHLYYFRETEIKSLKQLINAEFAILQTCNRVEIYLYSDTNTLKEVNKIIQYLNNIHNEPIGNQARVLCGKDAAKHLFLVASGADSLSIGEYEILSQIRSTIDMFKKLGFSGKYLQIFFERAIKVGRKVREETSISKGKVGIYSLAIDEAKKRFNDFYDRRILVIGAGEMAQKITSMLHNEGAKDVTIMNRTIEKAKQLALKFGYNYEKLDLDKLGNFDVAFISIYHENLRLENKWNTLIVDITVPPLFTGNNVITLEELERISNLNFKAREEELAKINKLVEDGINELLYDYKKEIYTEFMSKIMKREGHHHHHH”, the “soluble on expression in E. coli” value is reported as “soluble”.
With “INKINLNKPIIENKNNVDVSIKRYNNFVDIARLSIQKHFEHLSNDQKDSHVNNMEYMQKFVQGLQENRNISLSKYQENKAVMDLKYHLQKVYANYLSQEEN” the “soluble on expression in E. coli” value was “soluble”.
For “GMTQHLTIAQTYLAAWNEEDNERRRHLVGQAWAENTRYVDPLMQGEGQQGIAAMIEAARQKFPGYRFVLAGTPDGHGNFTRFSWRLISPDGDDVAGGTDVVSLNTEGRIDNVVGFLDGAVS”, the “soluble on expression in E. coli” value was “soluble”.
In the case of “MGSDKIHHHHHHASKIKQVGSTNLEPTTAYIRNYKATGSNAIYNKPGKLSGSKVVASASTAKAQSVLHGYKVAKLSNKSYYMKVVSFDGRYRGYIYVGKKNPVNNFKKVGGGLTYLSTTTSTSLTNNDKKDLSFAKPGTDTQIYKAPKGSQYKVGAAVKDTTDYKGHKLVASKAAMNDMDGQKWLYVSDVTEPTNASGWVLASQLTDYVAPKAPVSVGNDQTTVTKNWQREFYNPATGTKAYSFDNLNLPLLGTSGGSNVNWTTAVKKFNSDATVKGDKKDVVPADTLATAFKNSGLSTVYMKVTPTLLARIPGGLLDKIDSYSGLYMKFDLDMDNIPTTTHYGDQLKLAYKLDNTNLYYKPVISLGGLTNTNADGYAALPVQLNAMNTLWGLLYQ”, the “soluble on expression in E. coli” value is reported as “not soluble”.
With “MDHPDPNKWADCVHCGMCLEACPTYELTGHEQQSPRGRVHLIKSVAEGKLEVNEAFADPVFTCLDCRACETACPADVEVGGLIEEARGQIRQALPLEHHHHHH” the “soluble on expression in E. coli” value was “soluble”.
